In the experiment the target is human IL-12 receptor complex (IL-12Rβ1, IL-12Rβ2) (human, UniProt P42701 24-662; Q99665 24-862). The experiment in a line: cell-based or functional assay.
human IL-12 receptor complex (IL-12Rβ1, IL-12Rβ2), sequence (Q99665 24-862, chain 2 of 2, other chains not shown): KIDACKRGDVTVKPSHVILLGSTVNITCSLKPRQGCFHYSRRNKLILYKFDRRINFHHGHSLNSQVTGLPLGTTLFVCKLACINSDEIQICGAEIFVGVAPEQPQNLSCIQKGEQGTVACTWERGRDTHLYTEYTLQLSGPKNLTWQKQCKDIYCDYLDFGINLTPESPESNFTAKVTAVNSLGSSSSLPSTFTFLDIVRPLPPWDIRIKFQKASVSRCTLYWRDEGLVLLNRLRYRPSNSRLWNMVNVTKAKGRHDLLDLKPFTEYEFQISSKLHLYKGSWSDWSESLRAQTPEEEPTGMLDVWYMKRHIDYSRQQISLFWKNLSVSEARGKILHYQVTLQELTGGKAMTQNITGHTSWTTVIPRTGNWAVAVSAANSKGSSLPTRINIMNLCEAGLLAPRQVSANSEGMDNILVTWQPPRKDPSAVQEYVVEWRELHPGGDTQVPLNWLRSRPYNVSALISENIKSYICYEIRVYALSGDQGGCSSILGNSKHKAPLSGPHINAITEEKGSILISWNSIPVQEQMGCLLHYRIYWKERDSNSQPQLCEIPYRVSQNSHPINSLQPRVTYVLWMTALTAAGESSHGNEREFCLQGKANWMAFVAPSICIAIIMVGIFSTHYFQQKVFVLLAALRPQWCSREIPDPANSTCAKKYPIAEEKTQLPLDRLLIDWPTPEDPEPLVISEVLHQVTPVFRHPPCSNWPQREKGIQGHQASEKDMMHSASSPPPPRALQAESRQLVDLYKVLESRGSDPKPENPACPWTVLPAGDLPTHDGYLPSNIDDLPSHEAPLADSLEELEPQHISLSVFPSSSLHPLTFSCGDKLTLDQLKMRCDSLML

B1: IL-12(E59A/F60A)/anti-PD-1(D100N) (other)
light: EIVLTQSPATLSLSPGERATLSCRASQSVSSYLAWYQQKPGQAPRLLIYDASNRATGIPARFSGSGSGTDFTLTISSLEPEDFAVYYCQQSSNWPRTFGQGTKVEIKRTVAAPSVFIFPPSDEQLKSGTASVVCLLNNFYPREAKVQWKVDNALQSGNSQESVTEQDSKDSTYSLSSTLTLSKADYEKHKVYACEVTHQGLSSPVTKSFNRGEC
heavy 1: QVQLVESGGGVVQPGRSLRLDCKASGITFSNSGMHWVRQAPGKGLEWVAVIWYDGSKRYYADSVKGRFTISRDNSKNTLFLQMNSLRAEDTAVYYCATNNDYWGQGTLVTVSSASTKGPSVFPLAPSSKSTSGGTAALGCLVKDYFPEPVTVSWNSGALTSGVHTFPAVLQSSGLYSLSSVVTVPSSSLGTQTYICNVNHKPSNTKVDKKVEPKSCDKTHTCPPCPAPEKKGGPSVFLFPPKPKDTLMISRTPEVTCVVVDVSHEDPEVKFNWYVDGVEVHNAKTKPREEQYNSTYRVVSVLTVLHQDWLNGKEYKCKVSNKALPAPIEKTISKAKGQPREPQVYVLPPSREEMTKNQVSLLCLVKGFYPSDIAVEWESNGQPENRYMTWPPVLDSDGSFFLYSKLTVDKSRWQQGNVFSCSVMHEALHNHYTQKSLSLSPGK
heavy 2: QVQLVESGGGVVQPGRSLRLDCKASGITFSNSGMHWVRQAPGKGLEWVAVIWYDGSKRYYADSVKGRFTISRDNSKNTLFLQMNSLRAEDTAVYYCATNNDYWGQGTLVTVSSASTKGPSVFPLAPSSKSTSGGTAALGCLVKDYFPEPVTVSWNSGALTSGVHTFPAVLQSSGLYSLSSVVTVPSSSLGTQTYICNVNHKPSNTKVDKKVEPKSCDKPGSGIWELKKDVYVVELDWYPDAPGEMVVLTCDTPEEDGITWTLDQSSEVLGSGKTLTIQVKAAGDAGQYTCHKGGEVLSHSLLLLHKKEDGIWSTDILKDQKEPKNKTFLRCEAKNYSGRFTCWWLTTISTDLTFSVKSSRGSSDPQGVTCGAATLSAERVRGDNKEYEYSVECQEDSACPAAEESLPIEVMVDAVHKLKYENYTSSFFIRDIIKPDPPKNLQLKPLKNSRQVEVSWEYPDTWSTPHSYFSLTFCVQVQGKSKREKKDRVFTDKTSATVICRKNASISVRAQDRYYSSSWSEWASVPCSGGGGSGGGGSGGGGSGGGGSGRNLPVATPDPGMFPCLHHSQNLLRAVSNMLQKARQTLEFYPCTSEEIDHEDITKDKTSTVEACLPLELTKNESCLNSRETSFITNGSCLASRKTSFMMALCLSSIYEDLKMYQVEFKTMNAKLLMDPKRQIFLDQNMLAVIDELMQALNFNSETVPQKSSLEEPDFYKTKIKLCILLHAFRIRAVTIDRVMSYLNASDKTHTCPPCPAPEDEGGPSVFLFPPKPKDTLMISRTPEVTCVVVDVSHEDPEVKFNWYVDGVEVHNAKTKPREEQYNSTYRVVSVLTVLHQDWLNGKEYKCKVSNKALPAPIEKTISKAKGQPREPQVYVYPPSREEMTKNQVSLTCLVKGFYPSDIAVEWESNGQPENNYKTTPPVLDEDGSFALVSKLTVDKSRWQQGNVFSCSVMHEALHNHYTQKSLSLSPGK
As to B1, the “IL-12 biological activity, HEK-IL-12” value is less than 0.2%; the “IL-12 biological activity, HEK-IL-12-PD-1 (high)” value is 38%; the “IL-12 biological activity, HEK-IL-12-PD-1 (low)” value was found to be 33%; the “PBMC (IFN-γ ng/ml)” value stood at 820 ng/mL.

B2: IL-12(E59A/F60A)/anti-PD-1(D100G) (other)
light: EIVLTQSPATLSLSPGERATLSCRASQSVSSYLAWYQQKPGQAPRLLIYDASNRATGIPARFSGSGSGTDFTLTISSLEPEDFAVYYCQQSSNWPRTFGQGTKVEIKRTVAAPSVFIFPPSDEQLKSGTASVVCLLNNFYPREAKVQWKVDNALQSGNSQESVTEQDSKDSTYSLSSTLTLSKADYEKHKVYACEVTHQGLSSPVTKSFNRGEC
heavy 1: QVQLVESGGGVVQPGRSLRLDCKASGITFSNSGMHWVRQAPGKGLEWVAVIWYDGSKRYYADSVKGRFTISRDNSKNTLFLQMNSLRAEDTAVYYCATNGDYWGQGTLVTVSSASTKGPSVFPLAPSSKSTSGGTAALGCLVKDYFPEPVTVSWNSGALTSGVHTFPAVLQSSGLYSLSSVVTVPSSSLGTQTYICNVNHKPSNTKVDKKVEPKSCDKTHTCPPCPAPEKKGGPSVFLFPPKPKDTLMISRTPEVTCVVVDVSHEDPEVKFNWYVDGVEVHNAKTKPREEQYNSTYRVVSVLTVLHQDWLNGKEYKCKVSNKALPAPIEKTISKAKGQPREPQVYVLPPSREEMTKNQVSLLCLVKGFYPSDIAVEWESNGQPENRYMTWPPVLDSDGSFFLYSKLTVDKSRWQQGNVFSCSVMHEALHNHYTQKSLSLSPGK
heavy 2: QVQLVESGGGVVQPGRSLRLDCKASGITFSNSGMHWVRQAPGKGLEWVAVIWYDGSKRYYADSVKGRFTISRDNSKNTLFLQMNSLRAEDTAVYYCATNGDYWGQGTLVTVSSASTKGPSVFPLAPSSKSTSGGTAALGCLVKDYFPEPVTVSWNSGALTSGVHTFPAVLQSSGLYSLSSVVTVPSSSLGTQTYICNVNHKPSNTKVDKKVEPKSCDKPGSGIWELKKDVYVVELDWYPDAPGEMVVLTCDTPEEDGITWTLDQSSEVLGSGKTLTIQVKAAGDAGQYTCHKGGEVLSHSLLLLHKKEDGIWSTDILKDQKEPKNKTFLRCEAKNYSGRFTCWWLTTISTDLTFSVKSSRGSSDPQGVTCGAATLSAERVRGDNKEYEYSVECQEDSACPAAEESLPIEVMVDAVHKLKYENYTSSFFIRDIIKPDPPKNLQLKPLKNSRQVEVSWEYPDTWSTPHSYFSLTFCVQVQGKSKREKKDRVFTDKTSATVICRKNASISVRAQDRYYSSSWSEWASVPCSGGGGSGGGGSGGGGSGGGGSGRNLPVATPDPGMFPCLHHSQNLLRAVSNMLQKARQTLEFYPCTSEEIDHEDITKDKTSTVEACLPLELTKNESCLNSRETSFITNGSCLASRKTSFMMALCLSSIYEDLKMYQVEFKTMNAKLLMDPKRQIFLDQNMLAVIDELMQALNFNSETVPQKSSLEEPDFYKTKIKLCILLHAFRIRAVTIDRVMSYLNASDKTHTCPPCPAPEDEGGPSVFLFPPKPKDTLMISRTPEVTCVVVDVSHEDPEVKFNWYVDGVEVHNAKTKPREEQYNSTYRVVSVLTVLHQDWLNGKEYKCKVSNKALPAPIEKTISKAKGQPREPQVYVYPPSREEMTKNQVSLTCLVKGFYPSDIAVEWESNGQPENNYKTTPPVLDEDGSFALVSKLTVDKSRWQQGNVFSCSVMHEALHNHYTQKSLSLSPGK
On to B2, for which the “IL-12 biological activity, HEK-IL-12” value is less than 0.2%; the “IL-12 biological activity, HEK-IL-12-PD-1 (high)” value worked out at 33%; the “IL-12 biological activity, HEK-IL-12-PD-1 (low)” value came out at 17%; the “PBMC (IFN-γ ng/ml)” value was determined as 120 ng/mL.

B3: IL-12(E59A/F60A)/anti-PD-1(D100R) (other)
light: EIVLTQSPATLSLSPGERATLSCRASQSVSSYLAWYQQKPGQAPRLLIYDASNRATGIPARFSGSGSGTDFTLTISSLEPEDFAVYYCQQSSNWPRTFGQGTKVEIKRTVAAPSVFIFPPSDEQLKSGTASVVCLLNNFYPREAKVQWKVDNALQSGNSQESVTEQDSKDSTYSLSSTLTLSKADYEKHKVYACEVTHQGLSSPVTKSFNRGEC
heavy 1: QVQLVESGGGVVQPGRSLRLDCKASGITFSNSGMHWVRQAPGKGLEWVAVIWYDGSKRYYADSVKGRFTISRDNSKNTLFLQMNSLRAEDTAVYYCATNRDYWGQGTLVTVSSASTKGPSVFPLAPSSKSTSGGTAALGCLVKDYFPEPVTVSWNSGALTSGVHTFPAVLQSSGLYSLSSVVTVPSSSLGTQTYICNVNHKPSNTKVDKKVEPKSCDKTHTCPPCPAPEKKGGPSVFLFPPKPKDTLMISRTPEVTCVVVDVSHEDPEVKFNWYVDGVEVHNAKTKPREEQYNSTYRVVSVLTVLHQDWLNGKEYKCKVSNKALPAPIEKTISKAKGQPREPQVYVLPPSREEMTKNQVSLLCLVKGFYPSDIAVEWESNGQPENRYMTWPPVLDSDGSFFLYSKLTVDKSRWQQGNVFSCSVMHEALHNHYTQKSLSLSPGK
heavy 2: QVQLVESGGGVVQPGRSLRLDCKASGITFSNSGMHWVRQAPGKGLEWVAVIWYDGSKRYYADSVKGRFTISRDNSKNTLFLQMNSLRAEDTAVYYCATNRDYWGQGTLVTVSSASTKGPSVFPLAPSSKSTSGGTAALGCLVKDYFPEPVTVSWNSGALTSGVHTFPAVLQSSGLYSLSSVVTVPSSSLGTQTYICNVNHKPSNTKVDKKVEPKSCDKPGSGIWELKKDVYVVELDWYPDAPGEMVVLTCDTPEEDGITWTLDQSSEVLGSGKTLTIQVKAAGDAGQYTCHKGGEVLSHSLLLLHKKEDGIWSTDILKDQKEPKNKTFLRCEAKNYSGRFTCWWLTTISTDLTFSVKSSRGSSDPQGVTCGAATLSAERVRGDNKEYEYSVECQEDSACPAAEESLPIEVMVDAVHKLKYENYTSSFFIRDIIKPDPPKNLQLKPLKNSRQVEVSWEYPDTWSTPHSYFSLTFCVQVQGKSKREKKDRVFTDKTSATVICRKNASISVRAQDRYYSSSWSEWASVPCSGGGGSGGGGSGGGGSGGGGSGRNLPVATPDPGMFPCLHHSQNLLRAVSNMLQKARQTLEFYPCTSEEIDHEDITKDKTSTVEACLPLELTKNESCLNSRETSFITNGSCLASRKTSFMMALCLSSIYEDLKMYQVEFKTMNAKLLMDPKRQIFLDQNMLAVIDELMQALNFNSETVPQKSSLEEPDFYKTKIKLCILLHAFRIRAVTIDRVMSYLNASDKTHTCPPCPAPEDEGGPSVFLFPPKPKDTLMISRTPEVTCVVVDVSHEDPEVKFNWYVDGVEVHNAKTKPREEQYNSTYRVVSVLTVLHQDWLNGKEYKCKVSNKALPAPIEKTISKAKGQPREPQVYVYPPSREEMTKNQVSLTCLVKGFYPSDIAVEWESNGQPENNYKTTPPVLDEDGSFALVSKLTVDKSRWQQGNVFSCSVMHEALHNHYTQKSLSLSPGK
Take B3: the “IL-12 biological activity, HEK-IL-12” value is less than 0.2%; the “IL-12 biological activity, HEK-IL-12-PD-1 (high)” value turned out to be 10%; the “IL-12 biological activity, HEK-IL-12-PD-1 (low)” value came out at 3%; the “PBMC (IFN-γ ng/ml)” value worked out at 69 ng/mL.

For the origin of these results see patent US20240190962A1 (IMMUNOWAKE, published 2024).
